Three molecules from patent US20170128554A1 (NEW ENGLAND BIOLABS, published 2017) can be followed below.

Assay [1] addresses Sialylglycopeptide (SGP, Fushimi Pharmaceutical Co.). The assay is described as follows: isothermal titration calorimetry, […] (2 M NaCl), […]. For orientation: ITC needs no label: the signal is the heat of the interaction.
Assay [2] shares this target. The assay is described as follows: isothermal titration calorimetry, […] (50 mM NaCl), […].
Assay [3] has as its target T1, SGP-TMR (sialylglycopeptide labeled with two tetramethylrhodamine fluorophores).
T1 construct: also called sialylated SGP
The assay is described as follows: SGP-TMR pull-down on Fbs beads, low salt volatile buffer, fluorescence. The procedure: SNAP-Fbs is efficiently conjugated to BG beads (SNAP Capture Pull-Down resin (New England Biolabs, Ipswich, Mass.): SNAP-Fbs protein is reacted with BG beads at 4° C. overnight in a DTT-containing buffer (4 mM DTT, 20 mM tris-HCl pH 7.5, 1 mM EDTA, 50 mM NaCl). After the conjugation reaction, SNAP-Fbs beads are washed with 40× bead volume of low salt buffer.
Fbs binding to complex N-glycan linked glycomolecules is substantially unbiased in a high salt buffer. SGP was labeled with two tetramethylrhodamine (TMR) fluorophores on the peptide portion via lysine residues according to the TMR protein labeling kit protocol (Genaxxon Bioscience, Ulm Germany). After TMR labeling, a fraction of the SGP-TMR sample was processed with neuraminidase (New England Biolabs, Ipswich, Mass.) to remove terminal sialic acid residues. Two binding conditions (LS, low salt buffer and HS, high salt buffer) were tested. […] TMR Fluorescence in the supernatant was measured using a SpectraMax M5 fluorometer (excitation 555 nm and emission 595 nm with 590 nm cutoff). Binding of SGP-TMR to Fbs (y-axis) is determined by subtracting the fluorescence measured in the bead supernatant from the input fluorescence.
SGP-TMR affinity to the Fbs in low salt volatile buffer was analyzed by a pull-down assay using SNAP Capture Pull-Down resin conjugated with equal amounts of WT, GYR or PPRYR Fbs proteins (FIG. 10B). […]

A word on the Kd: it is the constant that tells how readily two partners part at equilibrium. A higher Kd goes with weaker binding.

B1: SNAP-Fbs (wild type Fbs sugar binding domain fused to SNAP-tag) (other)
chain: MGSSHHHHHHGDKDCEMKRTTLDSPLGKLELSGCEQGLHEIKLLGKGTSAADAVEVPAPAAVLGGPEPLMQATAWLNAYFHQPEAIEEFPVPALHHPVFQQESFTRQVLWKLLKVVKFGEVISYQQLAALAGNPAATAAVKTALSGNPVPILIPCHRVVSSSGAVGGYEGGLAVKEWLLAHEGHRLGKPGLGPAAIGAPGSGSGSPAGCQQEGLVPEGGVEEERDHWQQFYFLSKRRRNLLRNPCGEEDLEGWCDVEHGGDGWRVEELPGDSGVEFTHDESVKKYFASSFEWCRKAQVIDLQAEGYWEELLDTTQPAIVVKDWYSGRSDAGCLYELTVKLLSEHENVLAEFSSGQVAVPQDSDGGGWMEISHTFTDYGPGVRFVRFEHGGQDSVYWKGWFGARVTNSSVWVEP
notes: also called SNAP-wtFbs; wtFbs
Consider B1, for which the dissociation constant Kd in assay [1] came to 1430 nM; in assay [2], 3000 nM.

B2: SNAP-tagged Fbs GYR mutant conjugated to BG beads (other)
chain: MGSSHHHHHHGDKDCEMKRTTLDSPLGKLELSGCEQGLHEIKLLGKGTSAADAVEVPAPAAVLGGPEPLMQATAWLNAYFHQPEAIEEFPVPALHHPVFQQESFTRQVLWKLLKVVKFGEVISYQQLAALAGNPAATAAVKTALSGNPVPILIPCHRVVSSSGAVGGYEGGLAVKEWLLAHEGHRLGKPGLGPAAIGAPGSGSGSPAGCQQEGLVPEGGVEEERDHWQQFYFLSKRRRNLLRNPCGEEDLEGWCDVEHGGDGWRVEELPGDGGVEFTHDESVKKYFASSYRWCRKAQVIDLQAEGYWEELLDTTQPAIVVKDWYSGRSDAGCLYELTVKLLSEHENVLAEFSSGQVAVPQDSDGGGWMEISHTFTDYGPGVRFVRFEHGGQDSVYWKGWFGARVTNSSVWVEP
notes: also called S155G+YR
Regarding B2, the “fold increased affinity, against WT Fbs” value in assay [3] is 3 fold.

B3: SNAP-tagged Fbs PPRYR mutant conjugated to BG beads (other)
chain: MGSSHHHHHHGDKDCEMKRTTLDSPLGKLELSGCEQGLHEIKLLGKGTSAADAVEVPAPAAVLGGPEPLMQATAWLNAYFHQPEAIEEFPVPALHHPVFQQESFTRQVLWKLLKVVKFGEVISYQQLAALAGNPAATAAVKTALSGNPVPILIPCHRVVSSSGAVGGYEGGLAVKEWLLAHEGHRLGKPGLGPAAIGAPGSGSGSPAGCQQEGLVPEGGVEEERDHWQQFYFLSKRRRNLLRNPCGEEDLEGWCDVEHGGDGWRVEELPGPPRVEFTHDESVKKYFASSYRWCRKAQVIDLQAEGYWEELLDTTQPAIVVKDWYSGRSDAGCLYELTVKLLSEHENVLAEFSSGQVAVPQDSDGGGWMEISHTFTDYGPGVRFVRFEHGGQDSVYWKGWFGARVTNSSVWVEP
As to B3, the “fold increased affinity, against WT Fbs” value in assay [3] is 2 fold.
